Data on 2 molecules can be found in article PMC4794606 (Molecules and Cells, 2016).

The target in data set [1] is full length human extracellular superoxide dismutase (residues 1-240), (His)6-FLAG-PreScission site fusion (human) (UniProt P08294). The data set can be described thus: SEC. Background: In gel filtration, larger molecules generally elute earlier.
The data set “SEC” deals with the molecule itself. As to the kind of experiment: SEC.

One may read the stoichiometry N as a count of units in the complex or per binding partner. “full length human extracellular superoxide dismutase (residues 1-240), (His)6-FLAG-PreScission site fusion (from UniProt P08294 19-240) (enzyme)” registered a stoichiometry N in data set [1] of 8.

B1: truncated/mature human extracellular superoxide dismutase (residues 19-240), (His)6-FLAG-PreScission site fusion (enzyme, UniProt P08294 19-240, looked up)
chain: WTGEDSAEPNSDSAEWIRDMYAKVTEIWQEVMQRRDDDGALHAACQVQPSATLDAAQPRVTGVVLFRQLAPRAKLDAFFALEGFPTEPNSSSRAIHVHQFGDLSQGCESTGPHYNPLAVPHPQHPGDFGNFAVRDGSLWRYRAGLAASLAGPHSIVGRAVVVHAGEDDLGRGGNQASVENGNAGRRLACCVVGVCGPGLWERQAREHSERKKRRRESECKAA
modifications: N-glycosylated at Asn107
Consider B1, for which, in “SEC”, the “stoichiometry N” value was 8.
